Tested on: 3-methylcrotonic acid
Type: biochemical, Yersinia frederiksenii
Parameters: key: “+” representing a low increase in activity; “++++” representing a high increase in activity

B1: I283T-P284D-N285M-N287T-S288T-S322T-N388M-K394R-C430A-L432F-L434W-S436N-G462P-A463P (protein)
chain: MFLKSLREQINLLKRQGDLRIINRPVDSYLEAAAIIRRSTETKAPVPLMTNIKGYPGCSIVGGLAALSSNPEYPLSRVAMSLGLSTTASAQSIVQYLIDGLKKTPYLPVEIDSNSAPCKQNILRGEDASLAHFPIPQVHQHDGNRYVNTWGVFIVESPDGQWCNWSIQRVQYLNDRQMIALVFPSQHISDIWEEWVKIGKPMPYALVQGCEPIVPYIAGLPLLERNVNEAEYIGALYGKGIEVVKCETHDLRVPASSEVVIEGYFAITREGVEGPFGEFAGYTDMETTLQPILSITAISWQDDPIWPVVAEGKPVDEYHTCTGIGDAAAIQNVLLTANLPVSFVWVPLYSACHLMIVSINRHWRQTHPDLTSEQLTKKVGDVIHQTRMSIKLPRIVVLDDDVDPADTESLLWALATRIHPERKRYFYESAIFPWLNCYSEEERHNRKGKRVIIDALLPENHPPISSFDYAYPDDIKQRVLMHWETDFSHD
Q: Which “Activity relative to WT” value does the source give for B1 here?
A: ++++

B2: I283T-P284D-N285M-N287T-L289M-S322T-N388M-K394R-C430A-L432F-L434W-S436N-G462P-A463P (protein)
chain: MFLKSLREQINLLKRQGDLRIINRPVDSYLEAAAIIRRSTETKAPVPLMTNIKGYPGCSIVGGLAALSSNPEYPLSRVAMSLGLSTTASAQSIVQYLIDGLKKTPYLPVEIDSNSAPCKQNILRGEDASLAHFPIPQVHQHDGNRYVNTWGVFIVESPDGQWCNWSIQRVQYLNDRQMIALVFPSQHISDIWEEWVKIGKPMPYALVQGCEPIVPYIAGLPLLERNVNEAEYIGALYGKGIEVVKCETHDLRVPASSEVVIEGYFAITREGVEGPFGEFAGYTDMETSMQPILSITAISWQDDPIWPVVAEGKPVDEYHTCTGIGDAAAIQNVLLTANLPVSFVWVPLYSACHLMIVSINRHWRQTHPDLTSEQLTKKVGDVIHQTRMSIKLPRIVVLDDDVDPADTESLLWALATRIHPERKRYFYESAIFPWLNCYSEEERHNRKGKRVIIDALLPENHPPISSFDYAYPDDIKQRVLMHWETDFSHD
Q: With B2 as the molecule, how does the “Activity relative to WT” value read?
A: ++++

B3: N388M-K394R-C430N-L432F-L434W-S436N-H444N (protein)
chain: MFLKSLREQINLLKRQGDLRIINRPVDSYLEAAAIIRRSTETKAPVPLMTNIKGYPGCSIVGGLAALSSNPEYPLSRVAMSLGLSTTASAQSIVQYLIDGLKKTPYLPVEIDSNSAPCKQNILRGEDASLAHFPIPQVHQHDGNRYVNTWGVFIVESPDGQWCNWSIQRVQYLNDRQMIALVFPSQHISDIWEEWVKIGKPMPYALVQGCEPIVPYIAGLPLLERNVNEAEYIGALYGKGIEVVKCETHDLRVPASSEVVIEGYFAITREGVEGPFGEFAGYIPNENSLQPILSITAISWQDDPIWPVVAEGKPVDEYHTCSGIGDAAAIQNVLLTANLPVSFVWVPLYSACHLMIVSINRHWRQTHPDLTSEQLTKKVGDVIHQTRMSIKLPRIVVLDDDVDPADTESLLWALATRIHPERKRYFYESNIFPWLNCYSEEERNNRKGKRVIIDALLPENHGAISSFDYAYPDDIKQRVLMHWETDFSHD
Q: B3 was tested. Which “Activity relative to WT” value did it give?
A: +

B4: I283T-P284D-N285M-N287T-S322T-N388M-K394R-C430T-L432F-L434W-S436N-G462P-A463P (protein)
chain: MFLKSLREQINLLKRQGDLRIINRPVDSYLEAAAIIRRSTETKAPVPLMTNIKGYPGCSIVGGLAALSSNPEYPLSRVAMSLGLSTTASAQSIVQYLIDGLKKTPYLPVEIDSNSAPCKQNILRGEDASLAHFPIPQVHQHDGNRYVNTWGVFIVESPDGQWCNWSIQRVQYLNDRQMIALVFPSQHISDIWEEWVKIGKPMPYALVQGCEPIVPYIAGLPLLERNVNEAEYIGALYGKGIEVVKCETHDLRVPASSEVVIEGYFAITREGVEGPFGEFAGYTDMETSLQPILSITAISWQDDPIWPVVAEGKPVDEYHTCTGIGDAAAIQNVLLTANLPVSFVWVPLYSACHLMIVSINRHWRQTHPDLTSEQLTKKVGDVIHQTRMSIKLPRIVVLDDDVDPADTESLLWALATRIHPERKRYFYESTIFPWLNCYSEEERHNRKGKRVIIDALLPENHPPISSFDYAYPDDIKQRVLMHWETDFSHD
Q: B4 was tested. Which “Activity relative to WT” value did it give?
A: ++++

B5: I283T-P284D-N287P-S322T-H384A-N388M-C430N-L432F-L434W-S436N-dG462 (protein)
chain: MFLKSLREQINLLKRQGDLRIINRPVDSYLEAAAIIRRSTETKAPVPLMTNIKGYPGCSIVGGLAALSSNPEYPLSRVAMSLGLSTTASAQSIVQYLIDGLKKTPYLPVEIDSNSAPCKQNILRGEDASLAHFPIPQVHQHDGNRYVNTWGVFIVESPDGQWCNWSIQRVQYLNDRQMIALVFPSQHISDIWEEWVKIGKPMPYALVQGCEPIVPYIAGLPLLERNVNEAEYIGALYGKGIEVVKCETHDLRVPASSEVVIEGYFAITREGVEGPFGEFAGYTDNEPSLQPILSITAISWQDDPIWPVVAEGKPVDEYHTCTGIGDAAAIQNVLLTANLPVSFVWVPLYSACHLMIVSINRHWRQTHPDLTSEQLTKKVGDVIAQTRMSIKLPKIVVLDDDVDPADTESLLWALATRIHPERKRYFYESNIFPWLNCYSEEERHNRKGKRVIIDALLPENHGAISSFDYAYPDDIKQRVLMHWETDFSHD
Q: How did the “Activity relative to WT” value turn out when B5 was run?
A: ++++

B6: I283T-P284D-N285M-N287T-L289Q-S322T-N388M-K394R-C430A-L432F-L434W-S436N-G462P-A463P (protein)
chain: MFLKSLREQINLLKRQGDLRIINRPVDSYLEAAAIIRRSTETKAPVPLMTNIKGYPGCSIVGGLAALSSNPEYPLSRVAMSLGLSTTASAQSIVQYLIDGLKKTPYLPVEIDSNSAPCKQNILRGEDASLAHFPIPQVHQHDGNRYVNTWGVFIVESPDGQWCNWSIQRVQYLNDRQMIALVFPSQHISDIWEEWVKIGKPMPYALVQGCEPIVPYIAGLPLLERNVNEAEYIGALYGKGIEVVKCETHDLRVPASSEVVIEGYFAITREGVEGPFGEFAGYTDMETSQQPILSITAISWQDDPIWPVVAEGKPVDEYHTCTGIGDAAAIQNVLLTANLPVSFVWVPLYSACHLMIVSINRHWRQTHPDLTSEQLTKKVGDVIHQTRMSIKLPRIVVLDDDVDPADTESLLWALATRIHPERKRYFYESAIFPWLNCYSEEERHNRKGKRVIIDALLPENHPPISSFDYAYPDDIKQRVLMHWETDFSHD
Q: For B6, which “Activity relative to WT” value is on record?
A: ++++

B7: I283T-P284D-N285M-N287T-L289R-S322T-N388M-K394R-C430A-L432F-L434W-S436N-G462P-A463P (protein)
chain: MFLKSLREQINLLKRQGDLRIINRPVDSYLEAAAIIRRSTETKAPVPLMTNIKGYPGCSIVGGLAALSSNPEYPLSRVAMSLGLSTTASAQSIVQYLIDGLKKTPYLPVEIDSNSAPCKQNILRGEDASLAHFPIPQVHQHDGNRYVNTWGVFIVESPDGQWCNWSIQRVQYLNDRQMIALVFPSQHISDIWEEWVKIGKPMPYALVQGCEPIVPYIAGLPLLERNVNEAEYIGALYGKGIEVVKCETHDLRVPASSEVVIEGYFAITREGVEGPFGEFAGYTDMETSRQPILSITAISWQDDPIWPVVAEGKPVDEYHTCTGIGDAAAIQNVLLTANLPVSFVWVPLYSACHLMIVSINRHWRQTHPDLTSEQLTKKVGDVIHQTRMSIKLPRIVVLDDDVDPADTESLLWALATRIHPERKRYFYESAIFPWLNCYSEEERHNRKGKRVIIDALLPENHPPISSFDYAYPDDIKQRVLMHWETDFSHD
Q: For B7, which “Activity relative to WT” value is on record?
A: ++++

From patent US20250327097A1, “ORGANISMS PRODUCING LESS CROTONIC ACID” (Global Bioenergies, priority 2021, published 2025)
